From patent US20120058906A1 (published 2012)

T1: rHuman Erythropoietin R/Fc Chimera, CF (R&D Systems Cat#963-ER) (human, UniProt P19235 25-250)
T1 construct: Bought Fc chimera; also called EPO R/Fc; EPOR; Fc part of the bought chimera not given
T1 sequence: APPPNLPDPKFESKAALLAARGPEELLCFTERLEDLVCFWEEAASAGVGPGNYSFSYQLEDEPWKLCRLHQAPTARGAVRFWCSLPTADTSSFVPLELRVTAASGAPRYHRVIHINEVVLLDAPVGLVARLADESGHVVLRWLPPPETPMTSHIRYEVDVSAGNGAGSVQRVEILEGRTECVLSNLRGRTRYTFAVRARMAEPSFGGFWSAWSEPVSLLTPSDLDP

T2: rHuman Erythropoietin R/Fc Chimera, CF (R&D Systems Cat#963-ER) (human, UniProt P19235 25-250)
T2 construct: Bought Fc chimera; also called EPO R/Fc; Epo R; not shown: Fc of the bought chimera
T2 sequence: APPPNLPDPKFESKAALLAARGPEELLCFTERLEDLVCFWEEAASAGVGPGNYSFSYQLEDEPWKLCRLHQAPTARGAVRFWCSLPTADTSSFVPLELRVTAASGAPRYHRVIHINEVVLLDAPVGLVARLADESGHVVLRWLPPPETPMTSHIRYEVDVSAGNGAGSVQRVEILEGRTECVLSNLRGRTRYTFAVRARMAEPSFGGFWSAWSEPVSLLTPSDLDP


Assays:
[1] = biological target: T3, rHuman Notch-1/Fc Chimera, CF (R&D Systems Cat#3647-TK) (human, UniProt P46531 19-526); experiment: MSD ECL multi-spot, Fab 0.14 uM, blank 237
T3 construct: Bought Fc chimera; Fc part of the bought chimera not given

[2] = biological target: T4, Recombinant Human DLL4 (R&D Systems Cat#1506-D4/CF) (human, UniProt Q9NR61 27-524); experiment: MSD ECL multi-spot, Fab 0.14 uM, blank 237
T4 construct: Bought recombinant protein; also called rHuman DLL4; delta-like protein 4

[3] = biological target: T5, rHuman HGF R/c-MET/Fc Chimera, CF (R&D Systems Cat#358-MT/CF) (human, UniProt P08581 25-932); experiment: MSD ECL multi-spot, Fab 0.14 uM, blank 237
T5 construct: Bought Fc chimera; also called HGF R/Fc; Fc part of the bought chimera not given

[4] = biological target: T6, rHuman ErbB2/Fc Chimera, CF (R&D Systems Cat#1129-ER) (human, UniProt P04626 23-652); experiment: MSD ECL multi-spot, Fab 0.14 uM, blank 237
T6 construct: Bought Fc chimera; also called HER2/neu; Fc part of the bought chimera not given

[5] = biological target: T7, rHuman EGF R/Fc Chimera, CF (R&D Systems Cat#344-ER) (human, UniProt P00533 25-645); experiment: MSD ECL titration, Fab 9.3 nM, blank 287
T7 construct: Bought Fc chimera; Fc part of the bought chimera not given

[6] = biological target: T8, rHuman P-Cadherin/Fc Chimera, CF (R&D Systems Cat#861-PC) (human, UniProt P22223 108-654); experiment: MSD ECL titration, Fab 9.3 nM, blank 287
T8 construct: Bought Fc chimera; Fc part of the bought chimera not given

[7] = biological target: T9, rHuman IGF-1 sR (insulin-like growth factor-1 soluble receptor), CF (R&D Systems Cat#391-GR) (human, UniProt P08069 31-932); experiment: MSD ECL titration, Fab 9.3 nM, blank 287
T9 construct: Bought soluble receptor; also called IGF-R1

[8] = biological target: T1, rHuman Erythropoietin R/Fc Chimera, CF …; experiment: MSD ECL titration, Fab 9.3 nM, blank 287
[9] = biological target: T4, Recombinant Human DLL4 (R&D Systems …); experiment: MSD ECL titration, Fab 9.3 nM, blank 287
[10] = biological target: T5, rHuman HGF R/c-MET/Fc Chimera, CF (R&D …); experiment: MSD ECL titration, Fab 9.3 nM, blank 287
[11] = biological target: T6, rHuman ErbB2/Fc Chimera, CF (R&D …); experiment: MSD ECL titration, Fab 9.3 nM, blank 287
[12] = biological target: T10, rHuman IGF-1 sR (insulin-like growth factor-1 soluble receptor), CF (R&D Systems Cat#391-GR) (human, UniProt P08069 31-932); experiment: ECL (MSD multi-spot), antigen on plate, Fab 10 nM
T10 construct: Bought soluble receptor; also called IGF-R1

[13] = biological target: T11, Recombinant Human DLL4 (R&D Systems Cat#1506-D4/CF) (human, UniProt Q9NR61 27-524); experiment: ECL (MSD multi-spot), antigen on plate, Fab 10 nM
T11 construct: Bought recombinant protein; also called delta-like protein 4

[14] = biological target: T2, rHuman Erythropoietin R/Fc Chimera, CF …; experiment: ECL (MSD multi-spot), antigen on plate, Fab 10 nM
[15] = biological target: T12, rHuman CD44/Fc Chimera, CF (R&D Systems Cat#3660-CD) (human, UniProt P16070 21-220); experiment: ECL (MSD multi-spot), antigen on plate, Fab 10 nM
T12 construct: Bought Fc chimera; not shown: Fc of the bought chimera

[16] = biological target: T13, rHuman P-Cadherin/Fc Chimera, CF (R&D Systems Cat#861-PC) (human, UniProt P22223 108-654); experiment: ECL (MSD multi-spot), antigen on plate, Fab 10 nM
T13 construct: Bought Fc chimera; also called CDH3; not shown: Fc of the bought chimera

[17] = biological target: T14, rHuman Notch-1/Fc Chimera, CF (R&D Systems Cat#3647-TK) (human, UniProt P46531 19-526); experiment: ECL (MSD multi-spot), antigen on plate, Fab 10 nM
T14 construct: Bought Fc chimera; not shown: Fc of the bought chimera

[18] = biological target: T15, rHuman ErbB2/Fc Chimera, CF (R&D Systems Cat#1129-ER) (human, UniProt P04626 23-652); experiment: ECL (MSD multi-spot), antigen on plate, Fab 10 nM
T15 construct: Bought Fc chimera; also called HER2/neu; not shown: Fc of the bought chimera

[19] = biological target: T16, rHuman HGF R/c-MET/Fc Chimera, CF (R&D Systems Cat#358-MT/CF) (human, UniProt P08581 25-932); experiment: ECL (MSD multi-spot), antigen on plate, Fab 10 nM
T16 construct: Bought Fc chimera; also called HGF R/Fc; not shown: Fc of the bought chimera

[20] = biological target: T17, rHuman EGF R/Fc Chimera, CF (R&D Systems Cat#344-ER) (human, UniProt P00533 25-645); experiment: ECL (MSD multi-spot), antigen on plate, Fab 10 nM
T17 construct: Bought Fc chimera; also called ErbB-1; not shown: Fc of the bought chimera
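Further: blank spot per well as comparator with Hit at signal to blank ratio of 4 or more.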

ECL signal [1] | ECL signal [2] | ECL signal [3] | ECL signal [4] | ECL signal [5] | ECL signal [6] | ECL signal [7] | ECL signal [8] | ECL signal [9] | ECL signal [10] | ECL signal [11] | ECL signal [12] | ECL signal [13] | ECL signal [14] | ECL signal [15] | ECL signal [16] | ECL signal [17] | ECL signal [18] | ECL signal [19] | ECL signal [20] | Binder
614 | 19300 | 848 | 870 | 424 | 452 | 315 | 306 | 13200 | 324 | 354 | – | – | – | – | – | – | – | – | – | Fab VH1-46_IGHD6-6*01_IGHJ1*01 & L6_IGKJ1*01 (Fab, V domains shown, Expressed in E. coli as Fab: heavy chain with CH1 plus Flag and His tags from Plasmid A, kappa light chain constant region from Plasmid C; also called Fab No. 1) VH: QVQLVQSGAEVKKPGASVKVSCKASGYTFTSYYMHWVRQAPGQGLEWMGIINPSGGSTSYAQKFQGRVTMTRDTSTSTVYMELSSLRSEDTAVYYCAREEYSSSSAEYFQHWGQGTLVTVSS VL: not shown
– | – | – | – | – | – | – | – | – | – | – | 214 ECL signal | 29800 ECL signal | 392 ECL signal | 352 ECL signal | 240 ECL signal | 388 ECL signal | 303 ECL signal | 271 ECL signal | 297 ECL signal | Fab VH1-46_IGHD6-6*01_IGHJ1*01_S102A_S103P_S104F & L6_IGKJ1*01_S31K (Fab, V domains shown, Fab) VH: QVQLVQSGAEVKKPGASVKVSCKASGYTFTSYYMHWVRQAPGQGLEWMGIINPSGGSTSYAQKFQGRVTMTRDTSTSTVYMELSSLRSEDTAVYYCAREEYAPFSAEYFQHWGQGTLVTVSS VL: EIVLTQSPATLSLSPGERATLSCRASQSVSKYLAWYQQKPGQAPRLLIYDASNRATGIPARFSGSGSGTDFTLTISSLEPEDFAVYYCQQRSNWPPWTFGQGTKVEIKR
